Experimental data published in patent US20210347865A1 (STATEN BIOTECHNOLOGY B V, published 2021).
Where a chain is given by its changes, count along the chain named.

B1: 29F10 scFv (scFv, part only; not given: scFv linker, domain order, c-myc tag, V domains shown, not shown: another chain or arm of the molecule; large carriers; small tags and cut ends)
VH: QLQLVESGGGLVQPGGSLRLSCAASGFTFGTYSMRWVRQVPRKALEWVSSISTDGGGTAYRDSVKGRFTISRDNAKNTLYLQMNNLKPEDTAIYYCVIAGYSDWGQGTQVTVSS
VL: DVVLTQTPGSLSVVPGEPASVSCKASQSLVHPDGKTYLYWLLQKPGQSPQRLIYQVSNRGSGVPDRFTGSGSGTDFTLEISGVKAEDAGVYYCAQGTYWPKTFGQGTKLEIK
B2: 29A06 IgG (antibody, V domains shown)
VH: B1 VH
VL: B1 VL with P18S, V21I, S28N, P32S, D33N, G62E, E79K
B3: 29A05 IgG (antibody, V domains shown)
VH: B1 VH
VL: B1 VL with P18S, V21I, H31Y, P32S, G60D, E79K, A85V
B4: 30D10 IgG (antibody, V domains shown)
VH: B1 VH
VL: DVVLTQTPGSLSVVPGESASISCTASQSLRHSDGRTYLYWLRQKPGQSPQRLIKRVSTRDPGVPDRFTGSGSGTDFTLKISGVRAEDAGVYYCAQGTYYPLTFGQGTKVELK

How the values were obtained:
native human ApoC3 [1] = molecular target: T1, native human ApoC3 (human, UniProt P02656 21-99, biotinylated in the captured-antigen assays (Tables 6 and 8); sites not stated); assay: SPR, biotinylated antigen captured on SA chip, scFv periplasmic extract injected, pH 7.4
T1 construct: also called nhuApoC3; native huApoC3

[2] = molecular target: T2, recombinant cynomolgus ApoC3 (cynomolgus monkey, UniProt P18659 21-99, biotinylated in the captured-antigen assays (Tables 6 and 8); sites not stated); assay: as above
T2 construct: No cleavage site is stated, so none is applied; also called rcyApoC3; bio-rcyApoC3

native human ApoC3 [3] = molecular target: T1, native human ApoC3; assay: SPR, IgG captured via anti-human Fc, ApoC3 analyte 50 nM
Method: (§1) Immobilization was performed in accordance with the method provided by Biacore in the NHS/EDC kit (Biacore AB). Briefly, after activation of the chip, a solution of 30 μg/ml anti-human Fcγ antibody in 10 mM acetate buffer with pH 5.0 was injected until the surface density reached approximately 10,000 RU. […] Following antibody capture, 100 μl of HBS-EP buffer was injected and passed through the flow cells at 30 μl/min. To bind target, 60 μl of 400 nM, 200 nM, 100 nM, or 50 nM ApoC3 protein in HBS-EP buffer was injected. An off-rate wash was performed by injection of HBS-EP buffer at 30 μl/min for 5 min. After dissociation, the flow cell surfaces were regenerated by injecting 20 μl of 10 mM glycine at pH 1.5.
(§2) The resulting sensorgrams were analysed with BIAevaluation 4.1 software using the Langmuir 1:1 binding model to derive binding kinetics. Data was zero adjusted and the reference cell sensorgrams were subtracted. A no-analyte blank assay was used for double referencing the sensorgrams corresponding to nhuApoC3 and rcyApoC3 injections. The dissociation and association phase sensorgrams were fitted separately for the 4 different concentration curves. Sensorgrams were excluded from the fitting if maximum RU values were below the limit of detection (i.e., <5 RU). SPR signals were too low to calculate kinetic parameters for […].

native human ApoC3 [4] = molecular target: T1, native human ApoC3; assay: SPR, IgG captured via anti-human Fc, ApoC3 analyte 100 nM
Method: as §1, §2

native human ApoC3 [5] = molecular target: T1, native human ApoC3; assay: SPR, IgG captured via anti-human Fc, ApoC3 analyte 200 nM
Method: as §1, §2

native human ApoC3 [6] = molecular target: T1, native human ApoC3; assay: SPR, IgG captured via anti-human Fc, ApoC3 analyte 400 nM
Method: as §1, §2

[7] = molecular target: T2, recombinant cynomolgus ApoC3; assay: as above
Method: as §1, §2

native human ApoC3 [8] = molecular target: T1, native human ApoC3; assay: SPR, antigen immobilized on CM5 chip, IgG as analyte, pH 7.4
[9] = molecular target: T2, recombinant cynomolgus ApoC3; assay: as above
native human ApoC3 [10] = molecular target: T1, native human ApoC3; assay: SPR, biotinylated antigen captured on streptavidin chip, IgG as analyte, pH 7.4
[11] = molecular target: T2, recombinant cynomolgus ApoC3; assay: as above
[12] = molecular target: T2, recombinant cynomolgus ApoC3; assay: SPR, IgG captured via anti-human Fc, ApoC3 analyte 100 nM
Method: as §1, §2

[13] = molecular target: T2, recombinant cynomolgus ApoC3; assay: SPR, IgG captured via anti-human Fc, ApoC3 analyte 200 nM
Method: as §1, §2

T2 sequence (P18659 21-99 limits assumed): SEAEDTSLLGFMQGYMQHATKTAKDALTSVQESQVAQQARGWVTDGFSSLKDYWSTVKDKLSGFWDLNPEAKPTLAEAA
T1 sequence (P02656 21-99): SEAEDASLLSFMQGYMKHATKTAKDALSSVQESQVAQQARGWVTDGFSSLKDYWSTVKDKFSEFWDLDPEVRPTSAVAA

Row | Binder | Kd (native human ApoC3 [3]) | koff (native human ApoC3 [3]) | kon (native human ApoC3 [3]) | Kd (native human ApoC3 [4]) | koff (native human ApoC3 [4]) | kon (native human ApoC3 [4]) | Kd (native human ApoC3 [5]) | koff (native human ApoC3 [5]) | kon (native human ApoC3 [5]) | Kd (native human ApoC3 [6]) | koff (native human ApoC3 [6]) | kon (native human ApoC3 [6]) | Kd [7] | koff [7] | Kd (native human ApoC3 [8]) | koff (native human ApoC3 [8]) | kon (native human ApoC3 [8]) | Kd (native human ApoC3 [10]) | koff (native human ApoC3 [10]) | kon (native human ApoC3 [10]) | further results
1 | B1 | – | – | – | – | – | – | – | – | – | – | – | – | – | – | – | – | – | – | – | – | R0 (native human ApoC3 [1]): 808 RU; koff (native human ApoC3 [1]): 0.00144 s⁻¹; R0 [2]: 52 RU; koff [2]: 0.059 s⁻¹
2 | B2 | 0.755 nM | 0.000314 s⁻¹ | 416000 M⁻¹ s⁻¹ | 0.814 nM | 0.000317 s⁻¹ | 390000 M⁻¹ s⁻¹ | 0.91 nM | 0.00032 s⁻¹ | 351000 M⁻¹ s⁻¹ | 0.973 nM | 0.000327 s⁻¹ | 336000 M⁻¹ s⁻¹ | 919 nM | 0.0207 s⁻¹ | 0.07 nM | 6.5e-05 s⁻¹ | 950000 M⁻¹ s⁻¹ | 0.04 nM | 4.2e-05 s⁻¹ | 960000 M⁻¹ s⁻¹ | kon [7]: 22500 M⁻¹ s⁻¹; Kd [9]: 0.15 nM; koff [9]: 7.5e-05 s⁻¹; kon [9]: 500000 M⁻¹ s⁻¹; Kd [11]: 0.46 nM; koff [11]: 0.000169 s⁻¹; kon [11]: 370000 M⁻¹ s⁻¹
3 | B3 | 6.01 nM | 0.00126 s⁻¹ | 210000 M⁻¹ s⁻¹ | 6.42 nM | 0.00132 s⁻¹ | 206000 M⁻¹ s⁻¹ | 6.87 nM | 0.00133 s⁻¹ | 194000 M⁻¹ s⁻¹ | 7.36 nM | 0.00133 s⁻¹ | 181000 M⁻¹ s⁻¹ | 365 nM | 0.00983 s⁻¹ | 0.16 nM | 8.2e-05 s⁻¹ | 520000 M⁻¹ s⁻¹ | 0.13 nM | 6.3e-05 s⁻¹ | 500000 M⁻¹ s⁻¹ | Kd [12]: 296 nM; koff [12]: 0.00887 s⁻¹; kon [12]: 30000 M⁻¹ s⁻¹; Kd [13]: 359 nM; koff [13]: 0.00875 s⁻¹; kon [13]: 24400 M⁻¹ s⁻¹; kon [7]: 26900 M⁻¹ s⁻¹; Kd [9]: 0.21 nM; koff [9]: 6.4e-05 s⁻¹; kon [9]: 310000 M⁻¹ s⁻¹; Kd [11]: 0.65 nM; koff [11]: 0.000175 s⁻¹; kon [11]: 270000 M⁻¹ s⁻¹
4 | B4 | – | – | – | – | – | – | – | – | – | – | – | – | – | – | 0.15 nM | 0.000231 s⁻¹ | 1.5e+06 M⁻¹ s⁻¹ | 0.1 nM | 0.000126 s⁻¹ | 1.29e+06 M⁻¹ s⁻¹ | binding result [9]: no binding
